“And” between values parts separate entries of the source, which are not always exact repeats. Equal entries are not always repeated. One block for each compound: values may come before it.
Columns and labels:
[1] = Gel electrophoresis of active agent after droplet generation; type: physicochemical; settings: after droplet generation with the device
Excerpt: To determine the stability of active agent after droplet generation, the generated stream of droplets including the active agent is collected and the molecular weight of the active agent is verified using gel electrophoresis.

[2] = Anderson Cascade Impactor testing of droplet delivery device with Albuterol sulfate (Example B); type: physicochemical
[3] = Insulin stability after aerosol generation, size exclusion chromatography; type: physicochemical
Excerpt: Alternately, to determine the stability of active agent after droplet generation, the generated stream of droplets including the active agent may be collected and SEC-HPLIC may be employed to monitor for any changes in large molecule aggregation and protein fragment content. Soluble protein aggregates and protein fragment content may be calculated by comparing respective peak area under the SEC-HPLC curve of dispensed protein solutions with controls (solutions remaining in the device reservoir).
Drug solutions for testing include Enbrel, (ENBREL® single-use prefilled syringes in 25 mg (0.51 mL of a 50 mg/mL solution of etanercept), and insulin, (Humalog, 200 units/ml, 3 ml kwikpens)
To calculate and compare effects of droplet generation through an ejector mechanism of the disclosure, the total area under the curve of the UV signal at 280 nm versus elution time for controls is compared with the aerosolized samples, which is set to 100%.
Aerosol collection and SEC is performed in a similar fashion as for the Enbrel analysis and aerosol collection.
Fifty microliters of the collected aerosol spray is injected onto the SEC column for analysis, while 50 mcl of the Kwikpen insulin solution is injected onto the SEC column for control samples.

[4] = Enbrel stability after aerosol generation, size exclusion chromatography; type: physicochemical; settings: for Peak 1 Peak Area % / Peak 2 Peak Area % / Peak 3 Peak Area % / Peak 4 Peak Area % / Peak 5 Peak Area %: replicate samples
Excerpt: Alternately, to determine the stability of active agent after droplet generation, the generated stream of droplets including the active agent may be collected and […] may be employed to monitor for any changes in large molecule aggregation and protein fragment content. Soluble protein aggregates and protein fragment content may be calculated by comparing respective peak area under the SEC-HPLC curve of dispensed protein solutions with controls (solutions remaining in the device reservoir). Drug solutions for testing include Enbrel, (ENBREL® single-use prefilled syringes in 25 mg (0.51 mL of a 50 mg/mL solution of etanercept), and insulin, (Humalog, 200 units/ml, 3 ml […] is performed with a YarraTM 3 μm SEC-2000 LC column 300×7.8 mm, SecurityGuard cartridge kit and SecurityGuard cartridges GFC-2000, 4×3 mm ID. Fifty microliters of Enbrel from the syringe (ENBREL® single-use prefilled syringes in 25 mg/0.51 mL of a 50 mg/mL solution of etanercept) is diluted (4:1) (4 parts, 200 mcl of the mobile phase buffer solution to 1 part, 50 mcl Enbrel from syringe). Fifty microliter of the diluted Enbrel is injected and separation was performed at a flow rate of 1.0 ml/min. The mobile phase buffer system included a PHOS. BUFF. SALINE. […] UV detection is performed at 280 nm. […] An ampule/cartridge is filled with […] of Enbrel® (50 mg/ml) diluted 4:1 (10 mg/ml)(4 parts (200 mcl) of PBS and 0.025% NaN3 and 1 part (50 mcl of Enbrel solution from the syringe). After 20 actuations and aerosolization, about 150 mcl of the aerosolized Enbrel solution is recovered and collected in the polypropylene tube located below the ejector mechanism. The control consists of the diluted Enbrel solution, 50 mcl of which is injected into the SEC column for analysis.

[5] = tested on: patients with cystic fibrosis; settings: cited from earlier work
[6] = Albuterol 0.5%, 28.3 lpm, 10 actuations
[7] = aerosolized, average of S1 and S2

Compound: adalimumab
- change in electrophoretic mobility / molecular weight of post-aerosol active agent versus control [1]: negligible change

Compound: bevacizumab
- change in electrophoretic mobility / molecular weight of post-aerosol active agent versus control [1]: negligible change

- droplets of an average diameter of less than about 5 μm [2, 6]: over 75%
- droplets with an average diameter of less than about 4 μm [2, 6]: over 70%
- Cum. % < ([2]; FILTER): 0.00%
- Cum. % > ([2]; FILTER): 100.00%
- Cum. % < ([2]; Pre-separator, cut diam. 10 μm): 100.00%
- Cum. % > ([2]; Pre-separator, cut diam. 10 μm): 0.00%
Compound: Albuterol sulfate

Compound: Insulin: insulin, Humalog, 200 units/ml, 3 ml kwikpens
- ejected dose forming a fragment which elutes at ~25 minutes ([3]; aerosolized with test device): 2.5%
- Peak 1 Peak Area % ([3]; aerosolized with test device, 20 actuations, replicate samples): 27.881% and 28.721%
- Peak 2 Peak Area % ([3]; aerosolized with test device, replicate samples): 69.780% and 67.807%
- Peak 3 Peak Area % ([3]; aerosolized with test device, replicate samples, fragment, elution ~25 min): 2.184% and 2.797%
- Peak 3 Peak Area %, Avg. [3, 7]: 2.4905
- Peak 1 Peak Area % ([3]; control, Kwikpen solution 200 U/ml, not aerosolized): 29.926%
- Peak 2 Peak Area % ([3]; control, not aerosolized): 69.630%
- Peak 3 Peak Area % ([3]; control, not aerosolized): 0%

Compound: etanercept [Enbrel]
- dose forming molecular fragments with elution times of 13 and 25 minutes ([4]; aerosolized with test device): 4.6%
- Peak 1 Peak Area % ([4]; aerosolized with test device, 20 actuations): 3.476% and 2.796%
- Peak 2 Peak Area % ([4]; aerosolized with test device): 92.112% and 90.789%
- Peak 3 Peak Area % ([4]; aerosolized with test device): 0.361% and 0.424%
- Peak 4 Peak Area % ([4]; aerosolized with test device, fragment, elution about 13 min): 0.352% and 0.357%
- Peak 5 Peak Area % ([4]; aerosolized with test device, fragment, elution about 25 min): 3.428% and 5.130% and 5.123%
- Peak 4 Peak Area %, Avg. [4, 7]: 0.3545
- Peak 5 Peak Area %, Avg. [4, 7]: 4.2755
- Peak 1 Peak Area % ([4]; control, Enbrel diluted 4:1 (10 mg/ml), not aerosolized): 2.428% and 3.041%
- Peak 2 Peak Area % ([4]; control, not aerosolized): 96.676% and 95.909%
- Peak 3 Peak Area % ([4]; control, not aerosolized): 0.373% and 0.351%
- Peak 4 Peak Area % ([4]; control, not aerosolized): 0%
- Peak 5 Peak Area % ([4]; control, not aerosolized): 0%
- change in electrophoretic mobility / molecular weight of post-aerosol active agent versus control [1]: negligible change

Compound: NC[C@H]1O[C@H](O[C@H]2[C@H](O)[C@@H](O[C@H]3O[C@H](CO)[C@@H](O)[C@H](N)[C@H]3O)[C@H](N)C[C@@H]2N)[C@H](N)C[C@@H]1O [tobramycin]
- pulmonary function after administration by inhalation ([5]; inhalation, without severe side effects to kidney functions): significantly improves pulmonary function
- serum levels after intravenous administration ([5]; intravenous administration): toxic to the kidneys

Reference: patent US11285283B2, “Methods for generating and delivering droplets to the pulmonary system using a droplet delivery device” (PNEUMA RESPIRATORY, INC., priority 2016, dated 2022)
